Experimental data: PMC8928417

Biological target: biotinylated histone H3 peptide trimethylated at lysine 27, H3K27me3 (21–44) (UniProt P68431)
Assay: peptide or protein array

Kd: 5.14 to 8.95 µM
Substance: polycomb-based transcription factor (PcTF), monovalent (from UniProt Q9HC52 1-62) (designed binder)
